Test results: publication PMC9720396, “Autoreactivity and broad neutralization of antibodies against HIV-1 are governed by distinct mutations: Implications for vaccine design strategies” (Frontiers in Immunology, 2022)

Experiments:
[1] = target: T1, host protein UBE3A (Abcam), coupled to Luminex beads, Q05086; test: Luminex bead assay; settings: chain shown with the change; left panel; highest antibody concentration plotted, est. 2000 ng/ml; parent: est. 12; read off a plot
T1 chain: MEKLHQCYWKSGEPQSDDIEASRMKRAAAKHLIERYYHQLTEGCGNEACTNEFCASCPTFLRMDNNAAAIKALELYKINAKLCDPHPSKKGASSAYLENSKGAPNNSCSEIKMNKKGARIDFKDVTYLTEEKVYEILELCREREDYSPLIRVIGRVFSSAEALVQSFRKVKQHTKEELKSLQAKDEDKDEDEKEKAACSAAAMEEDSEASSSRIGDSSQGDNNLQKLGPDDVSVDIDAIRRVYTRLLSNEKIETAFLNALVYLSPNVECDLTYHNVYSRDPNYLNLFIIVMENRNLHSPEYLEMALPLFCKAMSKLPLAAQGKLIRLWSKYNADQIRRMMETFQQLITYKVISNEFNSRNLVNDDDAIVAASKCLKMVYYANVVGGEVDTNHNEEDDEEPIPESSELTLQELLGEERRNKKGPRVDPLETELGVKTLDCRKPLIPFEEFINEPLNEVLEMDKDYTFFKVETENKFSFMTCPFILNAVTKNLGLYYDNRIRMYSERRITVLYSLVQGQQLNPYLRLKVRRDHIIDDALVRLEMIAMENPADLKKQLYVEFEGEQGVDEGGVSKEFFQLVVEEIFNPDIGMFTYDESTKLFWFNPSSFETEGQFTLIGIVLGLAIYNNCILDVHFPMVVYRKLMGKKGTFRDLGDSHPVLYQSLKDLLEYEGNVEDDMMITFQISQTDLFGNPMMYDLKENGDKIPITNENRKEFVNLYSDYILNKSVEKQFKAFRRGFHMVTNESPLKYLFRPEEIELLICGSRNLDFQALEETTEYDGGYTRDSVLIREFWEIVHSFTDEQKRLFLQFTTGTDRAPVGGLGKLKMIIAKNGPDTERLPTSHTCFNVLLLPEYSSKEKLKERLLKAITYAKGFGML

[2] = target: T2, UBE3A on the ProtoArray human protein microarray, Q05086; test: ProtoArray protein array; settings: chain shown with the change; red circle = UBE3A; x coordinate of the circle; parent: est. 45; read off a plot
T2 chain: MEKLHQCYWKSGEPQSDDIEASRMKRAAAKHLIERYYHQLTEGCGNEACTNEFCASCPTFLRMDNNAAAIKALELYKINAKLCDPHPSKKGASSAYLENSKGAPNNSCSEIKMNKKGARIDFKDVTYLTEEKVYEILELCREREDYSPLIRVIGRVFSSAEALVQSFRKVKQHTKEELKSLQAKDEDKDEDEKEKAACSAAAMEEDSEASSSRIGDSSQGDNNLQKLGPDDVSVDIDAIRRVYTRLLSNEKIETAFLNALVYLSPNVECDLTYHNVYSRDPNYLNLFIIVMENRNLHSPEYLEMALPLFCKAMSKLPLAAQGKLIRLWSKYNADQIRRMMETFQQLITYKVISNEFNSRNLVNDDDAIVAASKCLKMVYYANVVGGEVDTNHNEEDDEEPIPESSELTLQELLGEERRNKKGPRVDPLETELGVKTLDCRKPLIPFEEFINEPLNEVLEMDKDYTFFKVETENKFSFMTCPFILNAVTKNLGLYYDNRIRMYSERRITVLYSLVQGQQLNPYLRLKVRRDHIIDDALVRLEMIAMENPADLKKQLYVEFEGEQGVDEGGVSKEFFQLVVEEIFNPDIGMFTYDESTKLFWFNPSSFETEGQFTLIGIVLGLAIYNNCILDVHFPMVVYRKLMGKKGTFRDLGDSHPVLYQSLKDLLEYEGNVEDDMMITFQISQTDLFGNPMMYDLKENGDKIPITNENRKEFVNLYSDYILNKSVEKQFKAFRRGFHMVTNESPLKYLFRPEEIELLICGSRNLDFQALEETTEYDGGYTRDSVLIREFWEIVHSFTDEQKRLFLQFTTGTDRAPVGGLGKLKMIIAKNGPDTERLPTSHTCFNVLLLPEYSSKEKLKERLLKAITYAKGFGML

[3] = target: T3, host protein UBE3A (Abcam), coupled to Luminex beads (Homo sapiens, UniProt Q05086); test: Luminex bead-based binding assay; UBE3A (Abcam) covalently linked to carboxylated beads; Abs serially diluted 1:3 from 2 µg/ml in PBS with 0.05% NaN3, 0.05% Tween 20, 1% BSA and 1% milk; 2 hours at room temperature; detected with PE goat anti-human IgG; settings: both partners purified
T3 construct: UBE3A, host protein; bought from Abcam (printed there as UBE34); also called UBE34; source: bought: Abcam

B1: IA2_N60S (antibody, V domains shown)
V domain 1: QVQLQESGPGVVKSSETLSLTCTVSGGSMGGTYWSWLRLSPGKGLEWIGYIFHTGHTNYSPSLEGRVSISVDTSEDQFSLRLRSVTAADTAVYFCASLPRGQLVNAYFRNWGRGTLVSVTA
V domain 2: SYELTQPPSVSVSPGQTATITCSGDKVASKNVCWYQVKPGQSPEVVMYENYKRPSGIPDRFSGSKSGSTATLTIRGTQATDEADYYCQVWDSFSTFVFGSGTQVTV
notes: as the heavy chain of m8 (IA2); as the light chain of m8 (IA2); recombinant IgG; also called the N60S mutant; IA2 N60S mutant; source: Expi293, transiently transfected, purified (Protein A agarose)
- response [1]: 8.5 gMFI
- response [2]: 45 MFI
- binding result [3]: no binding (tested: 2 µg/ml)
